{"source": "paper PMC12291119", "about": "(2025)", "binders": {"B1": {"name": "gl-PGT121 (protein)", "chain 1": "SYVLTQPPSVSVAPGQTARITCGGNNIGSKSVHWYQQKPGQAPVLVVYDDSDRPSGIPERFSGSNSGNTATLTISRVEAGDEADYYCQVWDSSSDHPWVFGGGTKLTVLGQPKAAPSVTLFPPSSEELQANKATLVCLISDFYPGAVTVAWKADSSPVKAGVETTTPSKQSNNKYAASSYLSLTPEQWKSHRSYSCQVTHEGSTVEKTVAPTECS", "chain 2": "QVQLQESGPGLVKPSETLSLTCTVSGGSISSYYWSWIRQPPGKGLEWIGYIYYSGSTNYNPSLKSRVTISVDTSKNQFSLKLSSVTAADTAVYYCARTQQGKRIYGVVSFGDYYYYYYMDVWGKGTTVTVSSASTKGPSVFPLAPSSKSTSGGTAALGCLVKDYFPEPVTVSWNSGALTSGVHTFPAVLQSSGLYSLSSVVTVPSSSLGTQTYICNVNHKPSNTKVDKRVEPKSCDKTHHHHHH"}, "B2": {"name": "m2 (protein)", "chain 1": "QVHLQESGPGLVKPSETLSLTCNVSGTLVRDNYWSWIRQPLGKQPEWIGYVHDSGDTNYNPSLKSRVHLSLDKSKNLVSLRLTGVTAADSAIYYCATTKHGRRIYGVVAFKEWFTYFYMDVWGKGTSVTVSS", "chain 2": "APTFVSVAPGQTARITCGEESLGSRSVIWYQQRPGQAPSLIIYNNNDRPSGIPDRFSGSPGSTFGTTATLTITSVEAGDEADYYCHIWDSRRPTNWVFGEGTTLIVL"}, "B3": {"name": "acyclic H1 variant (peptide 7) (peptide)", "chain": "YTEKHNGIGDIRPAIC(iodoacetamide)[Hpra′](Man9GlcNAc2)NSKNQNHRC(iodoacetamide)NHYQIKLYIH[Hpra′](Man9GlcNAc2)L[Hpra′](Man9GlcNAc2)RLPHNYRNS", "modifications": "not fully specified (C-terminus); also: Man9GlcNAc2 attached by CuAAC, biotin on the C-terminal lysine (no K at C-terminus of given chain)"}, "B4": {"name": "PGT128 (antibody, V domains shown)", "VH": "QPQLQESGPTLVEASETLSLTCAVSGDSTAACNSFWGWVRQPPGKGLEWVGSLSHCASYWNRGWTYHNPSLKSRLTLALDTPKNLVFLKLNSVTAADTATYYCARFGGEVLRYTDWPKPAWVDLWGRGTLVTVSS", "VL": "QSALTQPPSASGSPGQSITISCTGTSNNFVSWYQQHAGKAPKLVIYDVNKRPSGVPDRFSGSKSGNTASLTVSGLQTDDEAVYYCGSLVGNWDVIFGGGTKLTVL"}, "B5": {"name": "H1 mutant with IGDIR changed to IAAIA (peptide 5) (peptide)", "chain": "YTEKHNGIAAIAPAIC[Hpra′](Man9GlcNAc2)NSKNQNHRCNHYQIKLYIH[Hpra′](Man9GlcNAc2)L[Hpra′](Man9GlcNAc2)RLPHNYRNS", "modifications": "not fully specified (C-terminus); cysteine pairing not given here; also: Man9GlcNAc2 attached by CuAAC, biotin on the C-terminal lysine (no K at C-terminus of given chain)"}, "B6": {"name": "H22 glycopeptide (peptide 2) (peptide)", "chain": "LFKPYPKIGDIRKARC[Hpra′](Man9GlcNAc2)LQHTLHHRTNKQPSYRRRLKTLIPLFRRC[Hpra′](Man9GlcNAc2)L", "modifications": "not fully specified (C-terminus); cysteine pairing not given here; also: Man9GlcNAc2 attached by CuAAC, biotin on the C-terminal lysine (no K at C-terminus of given chain)"}, "B7": {"name": "H1 glycopeptide (peptide 1) (peptide)", "chain": "YTEKHNGIGDIRPAIC[Hpra′](Man9GlcNAc2)NSKNQNHRCNHYQIKLYIH[Hpra′](Man9GlcNAc2)L[Hpra′](Man9GlcNAc2)RLPHNYRNS", "modifications": "linker 16-26 via m‑dibromoxylene (inferred); not fully specified (C-terminus); also: Man9GlcNAc2 attached by CuAAC, biotin on the C-terminal lysine (no K at C-terminus of given chain)"}, "B8": {"name": "L1 glycopeptide (peptide 8) (peptide)", "chain": "SIKLINQ[Hpra′](Man9GlcNAc2)[Hpra′](Man9GlcNAc2)TTNPHLRLHIGDIRRLIKDLY[Hpra′](Man9GlcNAc2)FRVYYRPTNSGRRLFVN", "modifications": "not fully specified (C-terminus); also: Man9GlcNAc2 attached by CuAAC, biotin on the C-terminal lysine (no K at C-terminus of given chain)"}}, "assay_in_all_cases": "BLI", "key": {"m14": {"target": "m14"}, "[1]": {"target": "GB1R-non-glycosylated peptide (12)"}, "m12": {"target": "m12"}, "m13": {"target": "m13"}, "PGT128 [2]": {"target": "B4"}, "[3]": {"target": "H1 mutant without the glycans at the second and third glycosylation sites (peptide 4) (Man9GlcNAc2 by CuAAC on homopropargylglycine at the first glycosylation site only; biotin on the C-terminal lysine)"}, "[4]": {"target": "H1 mutant without the glycan at the first of the three glycosylation sites (peptide 3) (Man9GlcNAc2 by CuAAC on homopropargylglycine at the second and third glycosylation sites only; biotin on the C-terminal lysine)"}, "[5]": {"target": "random scrambled version of the H1 sequence containing three glycans and cyclization (peptide 6) (three Man9GlcNAc2 glycans attached by CuAAC on homopropargylglycine (printed as M); cyclized; biotin on the C-terminal lysine)"}, "PGT128 [6]": {"target": "B4", "remark": "listed apart in the source"}}, "note": "Bridge positions count the residues as written; N and C are the ends. Square brackets hold non-standard residues; d marks the D form. Primed or numbered codes have the meaning given here. Ends that are not written are not given here. * marks the point of attachment. Man9GlcNAc2 = CC(=O)N[C@@H]1[C@@H](O)[C@H](O[C@@H]2O[C@H](CO)[C@@H](O[C@@H]3O[C@H](CO[C@H]4O[C@H](CO[C@H]5O[C@H](CO)[C@@H](O)[C@H](O)[C@@H]5O[C@H]5O[C@H](CO)[C@@H](O)[C@H](O)[C@@H]5O)[C@@H](O)[C@H](O[C@H]5O[C@H](CO)[C@@H](O)[C@H](O)[C@@H]5O[C@H]5O[C@H](CO)[C@@H](O)[C@H](O)[C@@H]5O)[C@@H]4O)[C@@H](O)[C@H](O[C@H]4O[C@H](CO)[C@@H](O)[C@H](O)[C@@H]4O[C@H]4O[C@H](CO)[C@@H](O)[C@H](O)[C@@H]4O[C@H]4O[C@H](CO)[C@@H](O)[C@H](O)[C@@H]4O)[C@@H]3O)[C@H](O)[C@H]2NC(C)=O)[C@@H](CO)O[C@H]1*; Hpra′ = its azide, alkyne or alkene has reacted where a group follows in round brackets"}
{"binder": "B1", "values": [{"measurement": "Kd", "setting": "m14", "value": 570, "unit": "nM"}, {"measurement": "koff", "setting": "m14", "value": 0.00262, "unit": "s⁻¹"}, {"measurement": "Kd", "setting": "[1]", "value": 710, "unit": "nM"}, {"measurement": "koff", "setting": "[1]", "value": 0.00199, "unit": "s⁻¹"}]}
{"binder": "B2", "values": [{"measurement": "koff", "setting": "m12", "value": 0.000802, "unit": "s⁻¹"}, {"measurement": "koff", "setting": "m13", "value": 0.000202, "unit": "s⁻¹"}]}
{"binder": "B3", "values": [{"measurement": "koff", "setting": "PGT128 [2]", "value": 0.00616, "unit": "s⁻¹"}]}
{"binder": "B4", "values": [{"measurement": "Kd", "setting": "[3]", "value": 21.1, "unit": "nM"}, {"measurement": "koff", "setting": "[3]", "value": 0.00221, "unit": "s⁻¹"}, {"measurement": "Kd", "setting": "[4]", "value": 0.94, "unit": "nM"}, {"measurement": "koff", "setting": "[4]", "value": "5.6e-05", "unit": "s⁻¹"}, {"measurement": "koff", "setting": "[5]", "value": 0.0132, "unit": "s⁻¹"}]}
{"binder": "B5", "values": [{"measurement": "koff", "setting": "PGT128 [2]", "value": 0.00212, "unit": "s⁻¹"}, {"measurement": "Kd", "setting": "PGT128 [6]", "value": 12.4, "unit": "nM"}]}
{"binder": "B6", "values": [{"measurement": "koff", "setting": "PGT128 [2]", "value": 0.00635, "unit": "s⁻¹"}]}
{"binder": "B7", "values": [{"measurement": "koff", "setting": "PGT128 [2]", "value": "6.3e-05", "unit": "s⁻¹"}]}
{"binder": "B8", "values": [{"measurement": "koff", "setting": "PGT128 [2]", "value": 0.000645, "unit": "s⁻¹"}]}
